These results are taken from the nanobody polyreactivity screen of Harvey et al. (2022).

The series can be described thus: yeast display, Sf9 membrane polyspecificity reagent, FACS + sequencing; frameworks hold sequencing errors. In a few lines:
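After 36–48 hours of galactose induction, yeast (Saccharomyces cerevisiae BJ5465) displaying a synthetic nanobody library were stained at 4 °C for 1 hour with 10% biotinylated, detergent-solubilized Sf9 membrane reagent. Streptavidin microbeads enriched the stained cells before FACS sorting into low and high (top ~1%) gates on anti-HA and streptavidin fluorescence. Each clone's polyreactivity label reflects its gate of origin.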
As for “QVQLVESGGGLVQAGGSLRLSCAASGRIFYRYAMGWYRQAPGKERELVATISRSGGSTNYADSVKGRFTISRDNAKNTVYLQMNSLKPEDTAVYYCNALYLSTRSGDYWGQGTQVTVSS”, the “polyreactivity (PSR sort gate)” value is reported as “high polyreactivity”.
The result for “QVQLVESGGGLVQAGGSLRLSCAASGRIFYRYGMGRYRPAHGKVRELVASITRGGSTYYADSVKWRFTISRDNAKNTVYLQMNSLKPEDTAVYDSNRDIGGTSVLDDYWGQGTQVTVSS” reads “low polyreactivity”; that for “QVQLVESGGGLVQAGGSLRLSCAASGRIFYRYGMGWYRQAPGKERELVASITRGGSTYYADSVKGRFTISRDNAKNTVYLQMNSLKPEDTAVYYCNAQTRYRYQYGYLGGTGYNYWGQGTQVTVSS”, “low polyreactivity”; that for “QVQLVESGGGLVQAGGSLRLSCAASGRIFYRYGMGWYRQAPGKERELVASITRGGSTYYADSVKGRFTISRDNAKYTVYLQMNSLKPEDTAVYYCATKSSAGYDYWGQGTQVTVSS”, “low polyreactivity”.
The result for “QVQLVESGGGLVQAGGSLRLSCAASGRIFYRYSMGWYRQAPGKERELVAGISSGGRTNYADSVKGRFTISRDNAKNTVYLQMNSLKPEDTAVYYCNKARSRWSDARSSFGYDYWGQGTQVTVSS” reads “low polyreactivity”.
In the case of “QVQLVESGGGLVQAGGSLRLSCAASGRIFYSNAIGWYRQAPGKERELVAAIRDSAGSTRYADSVKGRFTISRDNAKNTVYLQMNSLKPVDTAVYYCNKDYVSIYFEYLDDYWGQGTQVTVSS”, the “polyreactivity (PSR sort gate)” value is reported as “low polyreactivity”.
The result for “QVQLVESGGGLVQAGGSLRLSCAASGRIFYSNAMGWYRQAPGKERELVAAIRDSAGSTRYADSVKGRFTISRDNAKNTVYLQMNSLKPEDTAVYYCNKDYVSIYFEYLDDYWGQGTQVTVSS” reads “low polyreactivity”; that for “QVQLVESGGGLVQAGGSLRLSCAASGRIFYSYAMGGYRQAPGKERELVAAISSAGSTYYADSVKGSFTISRDNAKNTVYLQMNSLKPEDTAVYYSAKGIWPYHGYRLQRVYDSWGQGTQVTVSS”, “high polyreactivity”.
Under “QVQLVESGGGLVQAGGSLRLSCAASGRIFYSYAMGWYRQAPGKELELVAAIDESDGSTYYADSVKGRFTISRDNAKNTVYLQMNSLKPEDTAVYYCAADSLLVLFDYWGQGTQVTVSS” stands “low polyreactivity”; under “QVQLVESGGGLVQAGGSLRLSCAASGRIFYSYAMGWYRQAPGKERELVARISSGGSTNYADSVKGRFTISRDNAKNTVYLQMNSLNPEDTAVYYCAAATIWSGVHYGYWGQGTQVTVSS”, “low polyreactivity”; under “QVQLVESGGGLVQAGGSLRLSCAASGRIFYSYAMGWYRQAPGKERELVAVITYRGGRTYYADSVKGRFTISRDNAKNTVYLQMNSLKPEDTAVYYCARDPQFYLHTVTDGAYNYWGQGTQVTVSS”, “low polyreactivity”.
The result for “QVQLVESGGGLVQAGGSLRLSCAASGRIFYSYGMGWSRQGPGKERELVASITISGGGSTYYADSVKGRFTISRDNAKNTVYLQMISLKPEATAVYYCAATLTVWKYIYDYWGQGTQVTVSS” reads “high polyreactivity”; that for “QVQLVESGGGLVQAGGSLRLSCAASGRIFYSYTMGWYRQAPGKERELVAGINRSVGSTYYADSVKGRFTISRDNAKNTVYLQMNSLKPEDTAVYYCAAGSRRRSYYTFSSVHGHYYWGQVTQVTVSS”, “high polyreactivity”.
As for “QVQLVESGGGLVQAGGSLRLSCAASGRIFYTNAMGWYRQAPGKERELVATISSSGGRTYLRNSVKGRFTLSRDNAKNTVYLQMNSLKPEDTAVDYCAAGWSYPVRNIYYYWGQGTQVTVSS”, the “polyreactivity (PSR sort gate)” value is “high polyreactivity”.
As to “QVQLVESGGGLVQAGGSLRLSCAASGRIFYTNTMGWYRQAPGKERELVAAIRSGTRTYYADSVKGRFTISRDNAKNTVYLQMNSLKPEDTAVYYCAAYYSYYGGDYWGQGTQVTVSS”, the “polyreactivity (PSR sort gate)” value was “low polyreactivity”.
Under “QVQLVESGGGLVQAGGSLRLSCAASGRIFYVNVMGWYRQAPGKERELVAAIYWSDGSTYYADSVKGRFTISRDNAKNTVYLQMNSLKPEDTAVYYCNRRGPYGYKAWAIGTIGDLDYWGQGTQVTVSS” stands “low polyreactivity”; under “QVQLVESGGGLVQAGGSLRLSCAASGRIFYVYAMGGYRQAPGKERELVAGITSGGSTTYADSVKGRFTISRDNAKNTVYLQMNSLKPEDTAVYYCAALQRQSYWTYGYWGHGTQVTVSS”, “high polyreactivity”.
Under “QVQLVESGGGLVQAGGSLRLSCAASGRIFYWNAMGCYRQAPGKERELVADISTGGSTYYADSVKGRFTISRDNAKNTVYLQMNRLKPEDTAVYYCAVVYVSLWPSATDWSGFGYWGQGTQVTVSS” stands “low polyreactivity”.
On to “QVQLVESGGGLVQAGGSLRLSCAASGRIFYWNTMGWYRQAPGKEREFVAAITYGGGRTYYADSVKGRFTISRDNAKNTVYLQMNSLKPEDTAVYYCARRIPTLYLDYDYCGQGTQVTVSS”, for which the “polyreactivity (PSR sort gate)” value was “high polyreactivity”.
The result for “QVQLVESGGGLVQAGGSLRLSCAASGRIFYWYAMAWYRQAPGKERELVAAITSGGSTYYADSVKGRFTISRDNAKNTVYLQMNSLKPEDTAVYYCAADLYYWGDYDYWGQGTQVTVSS” reads “low polyreactivity”; that for “QVQLVESGGGLVQAGGSLRLSCAASGRIFYWYAMGWYRQAPGKERELVAAISSTGRTKYADSVKGRFTISRDNAKNTVDLQMNSLKPEDTAVYYCAKRRAAVNGRSDYYYWGQGTQVTVSS”, “high polyreactivity”; that for “QVQLVESGGGLVQAGGSLRLSCAASGRIFYYAMGWYRQAPGKERELVAVITYSGGNTYYADSVKGRFTISRDNAKNTVYLQMNSLKPEDTAVYYCAKAVSTKISRYYHYYKHYDYWGQGTQVTVSS”, “low polyreactivity”.
The result for “QVQLVESGGGLVQAGGSLRLSCAASGRIFYYNAIGWYRQAPGKERELVATITRAGGTYYADSVKGRFTISRDNAKNTVYLQMNSLKPEDTAVYYCAKRHPIVDDYKGDYWGQGTQVTVSS” reads “low polyreactivity”; that for “QVQLVESGGGLVQAGGSLRLSCAASGRIFYYNAMGWYRQAPGKERELVAAINIGGGTKYADSVKGRFTISRDNAKNTVYLQMNSLKPEDTAVYYCAAGIKRYLSYYTRYGYWGQGTQVTVSS”, “high polyreactivity”.
For the sequence “QVQLVESGGGLVQAGGSLRLSCAASGRIFYYNAMGWYRQAPGKERELVAAISWDGGSTYYADSVKGRFTISRDNAKNTVYLQMNSLKAEDTAVYYCAVDLYGTWYPTWFNYWGQGTQVTVSS”, the “polyreactivity (PSR sort gate)” value is “low polyreactivity”.
Regarding “QVQLVESGGGLVQAGGSLRLSCAASGRIFYYNAMGWYRQAPGKERELVAAISYRGASTYYADSVKGRFTISRDNAKNTVYLQMNSLKPEDTAVYYCAAVTISKGFYPYDYWGQGTQVTVSS”, the “polyreactivity (PSR sort gate)” value was “high polyreactivity”.
In the case of “QVQLVESGGGLVQAGGSLRLSCAASGRIFYYNAMGWYRQAPGKERELVATITGSGGSTYYADSVKGRFTISRDNAKNTVYLQMNSLKPEDTAVYYCNATRWYYDFYKLDYWGQGTQVTVSS”, the “polyreactivity (PSR sort gate)” value is reported as “low polyreactivity”.
The result for “QVQLVESGGGLVQAGGSLRLSCAASGRIFYYNDLGWYRQAPGKERELVAAISGSGGSTYYADSVKGRFTISRDNAKNTVYLQMNSLKPEDTAVYYCSYYYWGQGTQVTVSS” reads “low polyreactivity”; that for “QVQLVESGGGLVQAGGSLRLSCAASGRIFYYNGMGWYRQAPGKERELVASIPRTSGRTFYADSVKGRFTISRDKAKNTVYLQMNSLKPEDTAVYYCAAVGSRYVLGEYGYWGQGTQVTVSS”, “high polyreactivity”.
Take “QVQLVESGGGLVQAGGSLRLSCAASGRIFYYNTMGWYRQAPGKEREFVAAITGSGGITYYADSVKGRFTISRDNAKNTVYLQMNSLKPEDTAVYYCAARTRYSIYRYYYWGQGTQVTVSS”: the “polyreactivity (PSR sort gate)” value is on record as “high polyreactivity”.
Under “QVQLVESGGGLVQAGGSLRLSCAASGRIFYYNTMGWYRQAPGKERELVAAITTNGGSTYYADSVKGRFTISRDNAKNTVYLQMNSLKPEDTAVYYCNRDRYPYYYAYNYWGQGTQVTVSS” stands “low polyreactivity”; under “QVQLVESGGGLVQAGGSLRLSCAASGRIFYYYAMGLYRQAPGKERELVAAISGSGGTTYNADSVKGRITISRDHAKNTVYLQMNSLKPEDTAVYYCAEVQYRYAREYYYWGQCTQVTVSS”, “high polyreactivity”.
“QVQLVESGGGLVQAGGSLRLSCAASGRIFYYYAMGWYRQAPGKEREFVADISARGGSTYYADSVKGRFTISRDTAKNTVYLQMNSLKPEDTAVYYCAATTGLYTRYGYWGQGTQVTVSS”: the “polyreactivity (PSR sort gate)” value was “high polyreactivity”.
As for “QVQLVESGGGLVQAGGSLRLSCAASGRIFYYYAMGWYRQAPGKEREIVAAISASGGSTYADSVKGRFTISRDNAKNTVYLQMNSLKPEDTAVYYCATVYYYTYAWLDLYGGYTFEYWGQGTQVTVSS”, the “polyreactivity (PSR sort gate)” value is “low polyreactivity”.
“QVQLVESGGGLVQAGGSLRLSCAASGRIFYYYAMGWYRQAPGKERELVAAITWSGGSTYYADSVKGRFTISRDNAKNTVYLQMNSLKPEDTAVYYCAAEWAYWDEWSGDYYLLGYWGQGTQVTVSS”: the “polyreactivity (PSR sort gate)” value was “high polyreactivity”.
The result for “QVQLVESGGGLVQAGGSLRLSCAASGRIGRYAMGWYRQAPGKESELVAVITSGDSTYYADSVKGRFTITRDNAKNTVYFQMNSLKPEDTAVYYCAADSYRRWGILFTGNEYDSWGQGTQVTVSS” reads “low polyreactivity”; that for “QVQLVESGGGLVQAGGSLRLSCAASGRIGYNAMGWYRQAPGKERELVAAISSRGGSTYYADSVKGRFTISRDNAKNTVYLQMNSLKPEDTAVYYCNADYEARTRLGEYDYWGQGTQVTVSS”, “high polyreactivity”; that for “QVQLVESGGGLVQAGGSLRLSCAASGRIHTYAMGWYRQAPGKERELVAAISFSGGSTYYADSVKGRFTISRDNAKNTVYLQMNSLKPEDTAVYYCAAGGGPNYFVDYGIRYDNWGQGTQVTVSS”, “low polyreactivity”.
Under “QVQLVESGGGLVQAGGSLRLSCAASGRIIATNAMGWNRQAPGKERELVATITRSAGRTYYADSVKGRFTISRDNAKNTVYLHMNSLKPEDTAVYYCAASYWYTEPGYREYDYWGQGTQVTVSS” stands “low polyreactivity”.
Under “QVQLVESGGGLVQAGGSLRLSCAASGRIIGKNAMGWYRQAPGKERELVAAIRYNGGRTYYADSVKGRFTISRDNAKNTVYLQMNSLKPEDTAVYYCATRTYRVDPEFGYWGQGTQVTVSS” stands “high polyreactivity”.
